Measured values from the supplement of paper PMC9112550, “Optimization of the antimicrobial peptide Bac7 by deep mutational scanning” (BMC Biology, 2022).

Tested on: Escherichia coli TOP10
Test: shrunken log2 fold change of peptide-encoding DNA abundance (4.5 h post-induction vs induction); higher = less antimicrobial activity (less host growth inhibition)
Settings: time post-induction: 4.5 h; library: site-saturation at positions 5, 18, 19, 20
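Further: peptides expressed intracellularly from a pBAD plasmid library in pooled LB shake-flask culture, induced with 0.3% L-arabinose, DNA abundance read by NGS, three biological replicates, DESeq2 with apeglm shrinkage.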

Row | Sequence | shrunken log2 fold change
1 | RRIRERPPRLPRPRPRPDLFPRP | 0.462
2 | RRIRERPPRLPRPRPRPDMNPRP | -0.00248
3 | RRIRERPPRLPRPRPRPDQIPRP | -0.084
4 | RRIRERPPRLPRPRPRPDQLPRP | -0.248
5 | RRIRERPPRLPRPRPRPDQYPRP | -0.0158
6 | RRIRERPPRLPRPRPRPDSGPRP | -0.533
7 | RRIRERPPRLPRPRPRPDSIPRP | -0.042
8 | RRIRERPPRLPRPRPRPDSKPRP | -0.312
9 | RRIRERPPRLPRPRPRPDTGPRP | -0.161
10 | RRIRERPPRLPRPRPRPDVLPRP | -0.138
11 | RRIRERPPRLPRPRPRPDVQPRP | -0.0408
12 | RRIRERPPRLPRPRPRPECIPRP | 0.248
13 | RRIRERPPRLPRPRPRPECNPRP | 0.0631
14 | RRIRERPPRLPRPRPRPECQPRP | -0.0134
15 | RRIRERPPRLPRPRPRPEDCPRP | -0.104
16 | RRIRERPPRLPRPRPRPEGIPRP | 0.0236
17 | RRIRERPPRLPRPRPRPEGMPRP | 0.046
18 | RRIRERPPRLPRPRPRPEHPPRP | -0.0878
19 | RRIRERPPRLPRPRPRPEHRPRP | -0.0185
20 | RRIRERPPRLPRPRPRPEIFPRP | -0.00264
21 | RRIRERPPRLPRPRPRPEIHPRP | -0.0198
22 | RRIRERPPRLPRPRPRPEIWPRP | 0.417
23 | RRIRERPPRLPRPRPRPEKWPRP | -0.0225
24 | RRIRERPPRLPRPRPRPERDPRP | -0.0208
25 | RRIRERPPRLPRPRPRPESCPRP | -0.0125

Row | Sequence | shrunken log2 fold change
26 | RRIRERPPRLPRPRPRPETDPRP | -0.0989
27 | RRIRERPPRLPRPRPRPETLPRP | -0.0176
28 | RRIRERPPRLPRPRPRPETTPRP | 0.165
29 | RRIRERPPRLPRPRPRPEVMPRP | 0.378
30 | RRIRERPPRLPRPRPRPEWYPRP | 0.0172
31 | RRIRERPPRLPRPRPRPEYKPRP | -0.471
32 | RRIRERPPRLPRPRPRPFCEPRP | -0.0162
33 | RRIRERPPRLPRPRPRPFDMPRP | -0.0448
34 | RRIRERPPRLPRPRPRPFGPPRP | -0.146
35 | RRIRERPPRLPRPRPRPFHAPRP | -0.0736
36 | RRIRERPPRLPRPRPRPFHKPRP | -0.355
37 | RRIRERPPRLPRPRPRPFIAPRP | -0.2
38 | RRIRERPPRLPRPRPRPFIWPRP | 0.0296
39 | RRIRERPPRLPRPRPRPFKPPRP | -0.22
40 | RRIRERPPRLPRPRPRPFKYPRP | -0.0322
41 | RRIRERPPRLPRPRPRPFLEPRP | -0.436
42 | RRIRERPPRLPRPRPRPFNAPRP | -0.328
43 | RRIRERPPRLPRPRPRPFNMPRP | -0.236
44 | RRIRERPPRLPRPRPRPFNQPRP | -0.279
45 | RRIRERPPRLPRPRPRPFPCPRP | -0.0816
46 | RRIRERPPRLPRPRPRPFQFPRP | -0.062
47 | RRIRERPPRLPRPRPRPFRGPRP | -0.11
48 | RRIRERPPRLPRPRPRPFRPPRP | -0.179
49 | RRIRERPPRLPRPRPRPFSPPRP | -0.745
50 | RRIRERPPRLPRPRPRPFTHPRP | -0.0134

Row | Sequence | shrunken log2 fold change
51 | RRIRERPPRLPRPRPRPFYFPRP | 0.935
52 | RRIRERPPRLPRPRPRPGAGPRP | 0.395
53 | RRIRERPPRLPRPRPRPGCGPRP | 0.307
54 | RRIRERPPRLPRPRPRPGCSPRP | -0.0673
55 | RRIRERPPRLPRPRPRPGDTPRP | -0.943
56 | RRIRERPPRLPRPRPRPGDVPRP | -0.159
57 | RRIRERPPRLPRPRPRPGENPRP | 0.00425
58 | RRIRERPPRLPRPRPRPGGCPRP | 1.44
59 | RRIRERPPRLPRPRPRPGGDPRP | 0.0586
60 | RRIRERPPRLPRPRPRPGGEPRP | 0.127
61 | RRIRERPPRLPRPRPRPGHKPRP | -0.324
62 | RRIRERPPRLPRPRPRPGHNPRP | -0.115
63 | RRIRERPPRLPRPRPRPGKYPRP | -0.17
64 | RRIRERPPRLPRPRPRPGLIPRP | 0.101
65 | RRIRERPPRLPRPRPRPGLNPRP | 0.127
66 | RRIRERPPRLPRPRPRPGMMPRP | -0.235
67 | RRIRERPPRLPRPRPRPGMSPRP | 0.0438
68 | RRIRERPPRLPRPRPRPGQCPRP | 0.0236
69 | RRIRERPPRLPRPRPRPGQMPRP | 0.0413
70 | RRIRERPPRLPRPRPRPGRLPRP | -0.263
71 | RRIRERPPRLPRPRPRPGRTPRP | 0.251
72 | RRIRERPPRLPRPRPRPGSKPRP | -0.129
73 | RRIRERPPRLPRPRPRPHACPRP | 0.013
74 | RRIRERPPRLPRPRPRPHAGPRP | 0.0727
75 | RRIRERPPRLPRPRPRPHDHPRP | -0.224

Row | Sequence | shrunken log2 fold change
76 | RRIRERPPRLPRPRPRPHEGPRP | 0.127
77 | RRIRERPPRLPRPRPRPHETPRP | -0.0135
78 | RRIRERPPRLPRPRPRPHFVPRP | -0.0987
79 | RRIRERPPRLPRPRPRPHGKPRP | -0.0244
80 | RRIRERPPRLPRPRPRPHHWPRP | -0.315
81 | RRIRERPPRLPRPRPRPHICPRP | 0.0721
82 | RRIRERPPRLPRPRPRPHIEPRP | 0.0737
83 | RRIRERPPRLPRPRPRPHLVPRP | -0.125
84 | RRIRERPPRLPRPRPRPHLWPRP | 2.71
85 | RRIRERPPRLPRPRPRPHMWPRP | -0.0491
86 | RRIRERPPRLPRPRPRPHNEPRP | -0.438
87 | RRIRERPPRLPRPRPRPHPYPRP | -0.103
88 | RRIRERPPRLPRPRPRPHRFPRP | -0.169
89 | RRIRERPPRLPRPRPRPHSCPRP | 0.00997
90 | RRIRERPPRLPRPRPRPHSMPRP | -0.126
91 | RRIRERPPRLPRPRPRPHTAPRP | -0.14
92 | RRIRERPPRLPRPRPRPHTRPRP | -0.0821
93 | RRIRERPPRLPRPRPRPHVVPRP | -0.162
94 | RRIRERPPRLPRPRPRPHWCPRP | 0.0281
95 | RRIRERPPRLPRPRPRPIAMPRP | 0.188
96 | RRIRERPPRLPRPRPRPICSPRP | -0.0316
97 | RRIRERPPRLPRPRPRPICVPRP | -0.301
98 | RRIRERPPRLPRPRPRPIDYPRP | -0.0881
99 | RRIRERPPRLPRPRPRPIGEPRP | 0.128
100 | RRIRERPPRLPRPRPRPIGMPRP | 0.115

Row | Sequence | shrunken log2 fold change
101 | RRIRERPPRLPRPRPRPIHKPRP | -0.424
102 | RRIRERPPRLPRPRPRPIKYPRP | -0.351
103 | RRIRERPPRLPRPRPRPILTPRP | -0.337
104 | RRIRERPPRLPRPRPRPILVPRP | 0.028
105 | RRIRERPPRLPRPRPRPINIPRP | -0.973
106 | RRIRERPPRLPRPRPRPINYPRP | -0.286
107 | RRIRERPPRLPRPRPRPIPIPRP | -0.027
108 | RRIRERPPRLPRPRPRPIRHPRP | -0.397
109 | RRIRERPPRLPRPRPRPIRPPRP | -0.0241
110 | RRIRERPPRLPRPRPRPIRYPRP | -0.00369
111 | RRIRERPPRLPRPRPRPITRPRP | -0.149
112 | RRIRERPPRLPRPRPRPIVCPRP | -0.022
113 | RRIRERPPRLPRPRPRPIVPPRP | -0.25
114 | RRIRERPPRLPRPRPRPIVYPRP | 0.0176
115 | RRIRERPPRLPRPRPRPIWGPRP | -0.0579
116 | RRIRERPPRLPRPRPRPIYQPRP | -0.394
117 | RRIRERPPRLPRPRPRPKARPRP | -0.276
118 | RRIRERPPRLPRPRPRPKCCPRP | -0.191
119 | RRIRERPPRLPRPRPRPKCFPRP | -0.193
120 | RRIRERPPRLPRPRPRPKCTPRP | -0.882
121 | RRIRERPPRLPRPRPRPKDCPRP | 0.033
122 | RRIRERPPRLPRPRPRPKEQPRP | 0.0401
123 | RRIRERPPRLPRPRPRPKERPRP | 0.547
124 | RRIRERPPRLPRPRPRPKFCPRP | -0.267
125 | RRIRERPPRLPRPRPRPKFWPRP | 0.375

Row | Sequence | shrunken log2 fold change
126 | RRIRERPPRLPRPRPRPKFYPRP | -0.519
127 | RRIRERPPRLPRPRPRPKGCPRP | -0.0587
128 | RRIRERPPRLPRPRPRPKHDPRP | -0.441
129 | RRIRERPPRLPRPRPRPKIDPRP | -0.0798
130 | RRIRERPPRLPRPRPRPKIQPRP | -0.259
131 | RRIRERPPRLPRPRPRPKKGPRP | -0.438
132 | RRIRERPPRLPRPRPRPKLKPRP | -0.387
133 | RRIRERPPRLPRPRPRPKLYPRP | -0.432
134 | RRIRERPPRLPRPRPRPKMMPRP | -0.153
135 | RRIRERPPRLPRPRPRPKNCPRP | -0.0945
136 | RRIRERPPRLPRPRPRPKNHPRP | -0.499
137 | RRIRERPPRLPRPRPRPKPGPRP | 0.469
138 | RRIRERPPRLPRPRPRPKPNPRP | 0.0803
139 | RRIRERPPRLPRPRPRPKQFPRP | -0.0933
140 | RRIRERPPRLPRPRPRPKQKPRP | -0.0338
141 | RRIRERPPRLPRPRPRPKQLPRP | 0.123
142 | RRIRERPPRLPRPRPRPKQRPRP | 0.235
143 | RRIRERPPRLPRPRPRPKQSPRP | -0.0888
144 | RRIRERPPRLPRPRPRPKTHPRP | -0.392
145 | RRIRERPPRLPRPRPRPKTLPRP | -0.185
146 | RRIRERPPRLPRPRPRPKVPPRP | -0.015
147 | RRIRERPPRLPRPRPRPKWLPRP | 0.226
148 | RRIRERPPRLPRPRPRPKYGPRP | -0.567
149 | RRIRERPPRLPRPRPRPKYKPRP | -0.369
150 | RRIRERPPRLPRPRPRPKYQPRP | -0.601
